Target: MYC-tagged Exo70 wild-type (in MTLn3 cells) (UniProt Q9UPT5)
Test: proximity ligation assay
Conditions: N = 3 experiments

Chain of UniProt Q9UPT5 (Q9UPT5 whole entry): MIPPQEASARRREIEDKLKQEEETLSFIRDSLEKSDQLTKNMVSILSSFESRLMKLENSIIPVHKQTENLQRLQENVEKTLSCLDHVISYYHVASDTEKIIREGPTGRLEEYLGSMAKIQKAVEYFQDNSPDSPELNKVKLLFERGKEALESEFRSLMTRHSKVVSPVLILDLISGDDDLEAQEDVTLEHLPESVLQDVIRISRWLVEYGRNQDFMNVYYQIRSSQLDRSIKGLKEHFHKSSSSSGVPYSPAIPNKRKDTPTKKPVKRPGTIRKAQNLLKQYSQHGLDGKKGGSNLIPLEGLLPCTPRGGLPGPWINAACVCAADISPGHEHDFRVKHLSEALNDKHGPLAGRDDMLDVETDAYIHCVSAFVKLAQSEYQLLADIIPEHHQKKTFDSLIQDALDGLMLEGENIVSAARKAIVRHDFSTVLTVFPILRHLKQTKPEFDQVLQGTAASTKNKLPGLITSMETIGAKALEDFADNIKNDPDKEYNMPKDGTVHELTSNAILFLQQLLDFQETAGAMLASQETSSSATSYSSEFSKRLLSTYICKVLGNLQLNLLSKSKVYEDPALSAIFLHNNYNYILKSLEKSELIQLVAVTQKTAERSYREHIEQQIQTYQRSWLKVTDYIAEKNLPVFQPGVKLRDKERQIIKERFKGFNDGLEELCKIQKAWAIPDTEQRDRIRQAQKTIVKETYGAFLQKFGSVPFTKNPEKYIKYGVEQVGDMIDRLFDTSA

“Flag-tagged TC10 wild-type (in MTLn3 cells) P43L; E45V; Y46H; T49A; Y54C” gave an other: % invadopodia with PLA spots at core (% invadopodia) (category: core, parent: est. 23, read off a plot) of 16, an other: % invadopodia with no PLA spots (none) (% invadopodia) (category: none, parent: est. 33, read off a plot) of 55 and an other: % invadopodia with PLA spots at side (% invadopodia) (category: side, parent: est. 44, read off a plot) of 29.

Source: publication PMC8445963
